Data taken from US20090305963A1, “Lipocalin 2 for the Treatment, Prevention, and Management of Cancer Metastasis, Angiogenesis, and Fibrosis” (priority 2005, published 2009).

Tests used:
Type in all cases: cell-based, mouse
4T1-ras (R) cells = experiment: In vitro invasion assay (Matrigel-coated Transwells); settings: stable lipocalin 2 expression (RL) vs R cells; 16 hours
Experimental: FIG. 3 is a graph depicting the invasion migration of stable 4T1 clones using EV, R, and RL cells. Polycarbonate membranes of Transwells were coated with Matrigel® and cells were seeded. Sixteen hours later, cells were fixed, stained with Giemsa solution, and counted for each of the stable clones; EV, R, and RL.
Polycarbonate membranes (6.5 mm diameter, 8 μm pore size) of Transwells (Coster, N.Y.) were coated with Matrigel® (BD Biosciences, Franklin Lakes, N.J.) and cells were seeded (10^6 cells/100 μl) with DMEM including 0.1% serum. 16 hours later, cells were fixed, stained with Giemsa solution, and the upper surface of each membrane was scraped with a cotton swab. Cells that had reached the lower surface of the membrane (migrated cells) were counted in 20 random fields using a light microscope (×400).

VEGF = experiment: Measurement of VEGF levels by ELISA in conditioned media of 4T1 cells; settings: RL vs R cells; conditioned media, 2 days
Experimental: Conditioned media of 4T1 cells were collected after 2 days of incubation. Murine VEGF levels were determined in duplicate using a commercially available sandwich ELISA kit (R&D Systems, Minneapolis, Minn.), with a affinity purified polyclonal antibody specific for mouse VEGF has been pre-coated onto a microplate. Results were compared with a standard curve of mouse VEGF with a lower detection limit of 7 pg/mL. A model 680 microplate-reader (Bio-Rad Laboratories, CA) was used to measure light intensity correlating with VEGF binding.

[1] = tested on: serum-response element (SRE); experiment: SRE-luciferase assay; settings: RL cells; 48 hour incubation in serum free DMEM
Experimental: After transient transfection of the plasmids, cells were incubated for 20 hours in 10% FCS and luciferase activity in the cell lysates was determined using a luminometer normalized by sea-pansy luciferase activity under the control of the thymidine kinase promoter. The Dual-Luciferase Reporter Assay System was purchased from Promega (Madison, Wis.) (Hanai et al., J. Biol. Chem. 277:16464-16469, 2002).
For these experiments, EV and R cells were starved in DMEM without serum for 48 hours. During this time, half of the R cells were incubated with 50 μg/ml of lipocalin 2 protein with iron-loaded siderophore (R+Lipo:Sid:Fe), after which all cells were incubated with 10% FCS containing DMEM for 20 minutes and then harvested for western blotting with phosphospecific antibodies. Signaling events downstream of ERK activation were then monitored with a multi-copy serum-response element (SRE)-luciferase construct introduced into EV, R, and RL (FIG. 6B). For these experiments, an SRE-luciferase assay was performed on 4T1 clones after the 48 hour incubation in serum free DMEM. […] Just like R cells treated with exogenous protein (FIG. 6A), R cells infection with recombinant adenovirus carrying lipocalin 2, but not GFP, reduced SRE-luciferase activity, MEK, and ERK1/2 phosphorylation, without altering ras expression.
To localize the effect of lipocalin on ras-MAPK signaling, we utilized an adenovirus and expression plasmid encoding a constitutively active MEK (MEK-DD) (Murakami et al., Cell Growth Differ 10:333-342, 1999). MEK-DD adenoviral infection of EV cells led to increased SRE-luciferase activity (increased MAPK activity). […] RL cells in a 6-well plate were infected with an adenovirus carrying the MEK dominant active form (MEK-DD) and a Lac-Z adenovirus at the indicated multiplicities (MOI) in 2% serum including DMEM medium for 48 hours. Cells were then trypsinized, respread on 6-well plate at 5-10% confluency, and incubated with 10% serum including DMEM medium. Cell lysates were collected for western blotting 48 hours after the final plating (FIG. 6D). […]

AKT = experiment: Western blot for phospho-AKT
Description: FIGS. 14A-14B are western blots for phospho-AKT (pAKT) showing the downregulation of ras-induced AKT phosphorylation, but not IGF-1 induced AKT phosphorylation, by lipocalin 2. FIG. 14A is a western blot for pAKT showing the lysate from each 4T1 clone (EV, R and RL). FIG. 14B is a western blot for pAKT showing the lysate from EV or RL cells treated with or without IGF-1. GAPDH serves as a loading control.
Cells were stained as described previously (Mammoto et al., Cancer Lett. 184:165-170, 2002) and images acquired with a Delta Vision system (Applied Precision, Issaquah, Wash.) equipped with an Axiovert 100 microscope (Carl Zeiss MicroImaging Inc., Shelton, Conn.) and a Photometrics 300 series scientific-grade cooled CCD camera, reading 12-bit images, and using the 63/1.4 NA plan-Neofluar objective. For immunoprecipitation and immunoblotting, tissues were weighed, diced, soaked in ice cold RIPA buffer with 1 mM phenylmethylsulfonyl fluoride (PMSF), 1 μg/ml Aprotinin, 1 mM Na3VO4, 1 nM NaF, homogenized on ice, centrifuged at 10,000 g for 10 minutes at 4° C., and the supernatant fluid collected as total cell lysate. […] Protein bands were detected using SuperSignal® West Pico Chemiluminescent Substrate (Pierce Chemical Co., Rockford, Ill.) (Hanai et al., J. Cell. Biol. 158:529-539, 2002).

B1: lipocalin 2: human lipocalin 2 cDNA (HA tagged) in pcDNA3.1, stably expressed in 4T1-ras cells (RL clone); iron-siderophore binding protein (protein, UniProt P80188 21-198, looked up)
Neutrophil …: QDSTSDLIPAPPLSKVPLQQNFQDNQFQGKWYVVGLAGNAILREDKDPQKMYATIYELKEDKSYNVTSVLFRKKKCDYWIRTFVPGCQPGEFTLGNIKSYPGLTSYLVRVVSTNYNQHAMVFFKKVSQNREYFKITLYGRTKELTSELKENFIRFSKSLGLPENHIVFPVPIDQCIDG
modifications: HA tag
4T1-ras (R) cells
  reversal of ras induced invasiveness in vitro: approximately 76%
VEGF
  suppression of ras-induced VEGF secretion: ≈ 7.5 fold
[1]
  SRE-luciferase activity relative to R cells: about half to two-thirds
AKT; EV or RL cells with or without IGF-1
  IGF-1-induced phosphorylation of AKT: does not downregulate
AKT; EV, R and RL clones
  ras-induced phosphorylation of AKT: downregulates
